In the supplement of paper PMC12783771 one finds sfGFP reporter fluorescence data, which are given here for 14 variants.

The chains are these.
B1: library; numbered along this chain (parent)
chain: MNIQIGELAKRTACPVVTIRFYEQEGLLPPPGRSRGNFRLYGEEHVERLQFIRHCRSLDMPLSDVRTLLSYRKRPDQDCGEVNMLLDEHIRQVESRIGALLELKHHLVELREACSGARPAQSCGILQGLSDCVCDTRGTTAHPSD

± gives the standard deviation of the averaged measurements.

The variants in data set [1] derive from B1. Briefly: sfGFP reporter fluorescence (15 h) (µM FITC); higher = higher leak. To be noted: library round: Round 1; ligand: none. As for the experimental part: (§1)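 Cell-free biosensing: 1 µL Echo-assembled CFE reactions with linear PbrR variant templates (5 nM) and pPbrR-sfGFP reporter, with 1 µM Pb, 30 µM Zn or no ligand; endpoint sfGFP fluorescence after 15 h at 30 °C calibrated as µM FITC. Round 1 ML-predicted PbrR mutants; 3 biological replicates.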

Data set [2] covers variants of B1. Briefly: sfGFP reporter fluorescence (15 h) (µM FITC); higher = stronger transcriptional activation. As to conditions: library round: Round 1. Here is the method: as §1

Regarding MNIQIGELAKRTACPVVTIRFYEQEGLLPPPGRSRGNFRLYGEEHVERLQFIRHCRSLDMPLSTVRTLLSYRKRPDQDCGEVNMLLDEHIRQVESRIGALLELKHHCVELREACSGARPAQSCGILQGLSDCVCDTRGTTAHPSD [D64T L107C], the values for the sfGFP reporter fluorescence in data set [1], in data set [2] (ligand: 1 µM Pb) and in data set [2] (ligand: 30 µM Zn) were 2.07 ± 0.33, 2.22 ± 0.12 and 2.63 ± 0.3, respectively.
For MNIQIGELAKRTACPVVTIRFYEQEGLLPPPGRSRGNFRLYGEEHVERLQFIRHCRSLDMPLSDVRTLLSYRKRPDQDCGEVNMLLDEHIRQVESSIGALLELKHHLVELREACSGARPAQSCGILQGLSDCVCDTRGTTAHPSD [R96S], in that order: 0.0636 ± 0.0021, 0.0924 ± 0.0049 and 0.328 ± 0.015.
As for MNIQIGELAKRTACPVVTIRFYEQEGLLPPPGRSRGNFRLYGEEHVERLQFIRHCRSLDMPLSKVRTLLSYRKRPDQDCGEVNMLLDEHIRQVESRIGALLELKHHLVELREACSGARPAQSCGILQGLSACVCDTRGTTAHPSD [D64K D131A], the sfGFP reporter fluorescence was 0.131 ± 0.0097 in data set [1], 0.37 ± 0.032 in data set [2] (ligand: 1 µM Pb) and 1.76 ± 0.11 in data set [2] (ligand: 30 µM Zn).
Regarding MNIQIGELAKRTACPVVTIRFYEQEGLLPPPGRSRGNFRLYGEEHVERLQFIRHCRSLDMPLSDVRTLLSYRKRPDQDCGEVNMLLDEHIRQVESRIGALLELKHHLVELREACSGARPAQSCGILQGLSDCVCSTRGTTAHWSD [D135S P143W], the results for the sfGFP reporter fluorescence in data set [1], in data set [2] (ligand: 1 µM Pb) and in data set [2] (ligand: 30 µM Zn) were 0.0694 ± 0.00085, 0.0798 ± 0.0084 and 0.355 ± 0.051, respectively.
Regarding MNIQIGELAKRTACPVVTIRFYEQEGLLPPPGRSRGNFRLYGEEHVERLQFIRHCRSLDMNLSDVRTLLSYRKRPDQDCGEVNMLLDEHIRQVESAIGALLELKHHLVELREACSGARPAQSCGILQGLSDCVCDTRGTTAHPSD [P61N R96A], the sfGFP reporter fluorescence in data set [1] turned out to be 0.0665 ± 0.00092; in data set [2] (ligand: 1 µM Pb), 0.0876 ± 0.0059; in data set [2] (ligand: 30 µM Zn) it was 0.238 ± 0.024.
The matching figures for MNIQIGELAKRTACPVVTIRFYEQEGLLPPPGRSRGNFRLYGEEHVERLQFIRHCRSLDMPLSKVRTLLSYRKRPDQDCGEVNMLLDEHIRQVESRIGALLELKHHLVELRFACSGARPAQSCGILQGLSDCVCDTRGTTAHPSD [D64K E112F]: 0.06988 ± 0.00056, 0.145 ± 0.0047 and 0.802 ± 0.055.
With MNIQIGELAKRTACPVVTIRFYEQEGLLPPPGRSRGNFRLYGEEHVERLQFIRHCRSLDLPLSKVRTLLSYRKRPDQDCGEVNMLLDEHIRQVESRIGALLELKHHLVELREACSGARPAQSCGILQGLSDCVCSTRGTTAHPSD [M60L D64K D135S], the sfGFP reporter fluorescence in data set [1] is 0.29 ± 0.02; in data set [2] (ligand: 1 µM Pb), 0.662 ± 0.097; in data set [2] (ligand: 30 µM Zn), 1.93 ± 0.17.
The matching figures for MNIQIGELAKRTACPVVTIRFYEQEGLLPPPGRSRGNFRLYGEEHVERLQFIRHCRSLDMDLSKVRTLLSYRKRPDQDCGEVNMLLDEHIRQVESRIGALLELKHHCVELREACSGARPAQSCGILQMLSDCVCDTRGTTAHPSD [P61D D64K L107C G128M]: 1.99 ± 0.49, 2.06 ± 0.23 and 2.38 ± 0.037.
MNIQIGELAKRTACPVVTIRFYEQEGLLPPPGRSRGNFRLYGEEHVERLQFIRHCRSLDMPLSDVRTLLSYRKRPDQDCGEVNMLLDEHIRQVESRIGALLELKHHLRELREACSGARPAQSCGILQGLSDCVCDTRGTTAHMSD [V108R P143M]: the sfGFP reporter fluorescence was 0.0636 ± 0.002 in data set [1], 0.0724 ± 0.0057 in data set [2] (ligand: 1 µM Pb) and 0.376 ± 0.019 in data set [2] (ligand: 30 µM Zn).
The matching figures for MNIQIGELAKRTACPVVTIRFYEQEGLLPPPGRSRGNFRLYGEEHVERLQFIRHCRSLDMPLSDVRTLLSYRKRPDQDCGEVTMLLDEHIRQVESRIGALLELKHHLVELRMACSGARPAQSCGILQGLSDCVCDTRGTTAHPSD [N83T E112M]: 0.06267 ± 0.00037, 0.0849 ± 0.0046 and 0.162 ± 0.0094.
The matching figures for MNIQIGELAKRTACPVVTIRFYEQEGLLPPPGRSRGNFRLYGEEHVERLQFIRHCRSLDMPLSDVRTLLSYRKRPDQDCGEVTMLLDEHIRQVESRIGALLELKHHLVELREACSGARPAQSCGILQGLSDCVCPTRGTTAHPSD [N83T D135P]: 0.0602 ± 0.0037, 0.0771 ± 0.00092 and 0.106 ± 0.0033.
For MNIQIGELAKRTACPVVTIRFYEQEGLLPPPGRSRGNFRLYGEEHVERLQFIRHCRSLDMPLSDVRTLLSYRKRPDQDCGEVNMLLDEHIRQVESRIGALLELKHHLVELAEACSGARPAQSCGILQGLSNCVCDTRGTTAHPSD [R111A D131N], in that order: 0.066 ± 0.0013, 0.117 ± 0.018 and 0.829 ± 0.15.
With MNIQIGELAKRTACPVVTIRFYEQEGLLPPPGRSRGNFRLYGEEHVERLQFIRHCRSLDMPLSDVRTLLSYRKRPDQDCGEVNMLLDEHIRQVESRIGALLELKHHCVELREACSGARPAQSCAILQMLSDCVCDTRGTTAHPSD [L107C G124A G128M], the sfGFP reporter fluorescence in data set [1] is 0.371 ± 0.0094; in data set [2] (ligand: 1 µM Pb), 1.13 ± 0.051; in data set [2] (ligand: 30 µM Zn), 2.08 ± 0.19.
For MNIQIGELAKRTACPVVTIRFYEQEGLLPPPGRSRGNFRLYGEEHVERLQFIRHCRSLDMPLSDVRTLLSYRKRPDQDCGEVTMMLDEHIRQVESRIGALLELKHHLVELREACSGARPAQSCGILQGLSDCVCDTRGTTAHPSD [N83T L85M], in that order: 0.0622 ± 0.0036, 0.0669 ± 0.0024 and 0.105 ± 0.003.
